Laboratory results reported in patent US20230158141A1 (YAFEI SHANGHAI BIOLOG MEDICINE SCIENCE AND TECHNOLOGY, published 2023).
Where a chain is given by its changes, count along the chain named. Numbers in names are those of the source. Like-named read-outs stand apart in the source and are kept apart here. Values belong to the binder of their own block, whether it stands above or below them.

Key:
PD-1 [1] = target: T1, PD-1 (UniProt Q15116 25-167, limits assumed); assay: ELISA, OD mutant/OD WT; A=90-110%
T1 sequence (Q15116 25-167 limits assumed): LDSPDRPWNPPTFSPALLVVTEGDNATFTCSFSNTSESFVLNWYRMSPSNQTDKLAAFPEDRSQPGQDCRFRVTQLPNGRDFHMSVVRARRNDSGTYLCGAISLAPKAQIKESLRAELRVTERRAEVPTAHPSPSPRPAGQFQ

PD-1 [2] = target: T1, PD-1; assay: ELISA, OD mutant/OD WT; A=90-110%; remark: listed apart in the source
PD-1 [3] = target: T2, PD-1 (UniProt Q15116 25-167, limits assumed); assay: ELISA; S13 on the Cys
T2 sequence (Q15116 25-167 limits assumed): as above

PD-1 [4] = target: T2, PD-1; assay: ELISA; S9 on the Cys
PD-1 [5] = target: T2, PD-1; assay: ELISA; Cys mutant, no arm

binding activity (OD after mutation/OD wild type) (PD-1 [1]): 90 to 110%
B1: anti-PD-1 antibody 1 heavy chain G50C (antibody, human IgG4 S228P, kappa, V domains shown)
VH: QVQLVQSGVEVKKPGASVKVSCKASGYTFTNYYMYWVRQAPGQGLEWMGCINPSNGGTNFNEKFKNRVTLTTDSSTTTAYMELKSLQFDDTAVYYCARRDYRFDMGFDYWGQGTTVTVSS
VL: EIVLTQSPATLSLSPGERATLSCRASKGVSTSGYSYLHWYQQKPGQAPRLLIYLASYLESGVPARFSGSGSGTDFTLTISSLEPEDFAVYYCQHSRDLPLTFGGGTKVEIKR

binding activity (OD after mutation/OD wild type) (PD-1 [1]): 90 to 110%
B2: anti-PD-1 antibody 1 heavy chain G106C (antibody, human IgG4 S228P, kappa, V domains shown)
VH: B1 VH with C50G, G106C
VL: B1 VL

binding activity (OD after mutation/OD wild type) (PD-1 [1]): 90 to 110%
B3: anti-PD-1 antibody 1 heavy chain G56C (antibody, human IgG4 S228P, kappa, V domains shown)
VH: B1 VH with C50G, G56C
VL: B1 VL

binding activity (OD after mutation/OD wild type) (PD-1 [1]): 90 to 110%
B4: anti-PD-1 antibody 1 heavy chain G57C (antibody, human IgG4 S228P, kappa, V domains shown)
VH: B1 VH with C50G, G57C
VL: B1 VL

binding activity (OD after mutation/OD wild type) (PD-1 [2]): 90 to 110%
B5: anti-PD-1 antibody 2 light chain A34C (antibody, human IgG4 S228P, kappa, V domains shown)
VH: QVQLVESGGGVVQPGRSLRLDCKASGITFSNSGMHWVRQAPGKGLEWVAVIWYDGSKRYYADSVKGRFTISRDNSKNTLFLQMNSLRAEDTAVYYCATNDDYWGQGTLVTVSS
VL: EIVLTQSPATLSLSPGERATLSCRASQSVSSYLCWYQQKPGQAPRLLIYDASNRATGIPARFSGSGSGTDFTLTISSLEPEDFAVYYCQQSSNWPRTFGQGTKVEIKR

binding activity (OD after mutation/OD wild type) (PD-1 [2]): 90 to 110%
B6: anti-PD-1 antibody 2 light chain S28C (antibody, human IgG4 S228P, kappa, V domains shown)
VH: B5 VH
VL: B5 VL with S28C, C34A

binding activity, % of wild type (PD-1 [3]): 32.3%
binding activity, % of wild type (PD-1 [4]): 45.6%
binding activity, % of wild type (PD-1 [5]): 99.6%
B7: anti-PD-1 antibody 2 HC Ala24Cys (antibody, human IgG4 S228P, kappa, V domains shown)
VH: B5 VH with A24C
VL: B5 VL with C34A
modifications: arm on Cys24 as named in each row

binding activity, % of wild type (PD-1 [3]): 15%
binding activity, % of wild type (PD-1 [4]): 29.9%
binding activity, % of wild type (PD-1 [5]): 86.4%
B8: anti-PD-1 antibody 2 HC Thr28Cys (antibody, human IgG4 S228P, kappa, V domains shown)
VH: B5 VH with T28C
VL: B5 VL with C34A
modifications: arm on Cys28 as named in each row

binding activity, % of wild type (PD-1 [3]): 21.5%
binding activity, % of wild type (PD-1 [4]): 32.5%
binding activity, % of wild type (PD-1 [5]): 85.6%
B9: anti-PD-1 antibody 2 HC Gly15Cys (antibody, human IgG4 S228P, kappa, V domains shown)
VH: B5 VH with G15C
VL: B5 VL with C34A
modifications: arm on Cys15 as named in each row

binding activity, % of wild type (PD-1 [3]): 37.2%
binding activity, % of wild type (PD-1 [4]): 50.3%
binding activity, % of wild type (PD-1 [5]): 85.3%
B10: anti-PD-1 antibody 2 HC Ala40Cys (antibody, human IgG4 S228P, kappa, V domains shown)
VH: B5 VH with A40C
VL: B5 VL with C34A
modifications: arm on Cys40 as named in each row

binding activity (OD after mutation/OD wild type) (PD-1 [2]): 90 to 110%
B11: anti-PD-1 antibody 2 light chain S52C (antibody, human IgG4 S228P, kappa, V domains shown)
VH: B5 VH
VL: B5 VL with C34A, S52C

binding activity, % of wild type (PD-1 [3]): 42.4%
binding activity, % of wild type (PD-1 [4]): 86.3%
binding activity, % of wild type (PD-1 [5]): 92.2%
B12: anti-PD-1 antibody 2 HC Thr78Cys (antibody, human IgG4 S228P, kappa, V domains shown)
VH: B5 VH with T78C
VL: B5 VL with C34A
modifications: arm on Cys78 as named in each row

binding activity, % of wild type (PD-1 [3]): 32.1%
binding activity, % of wild type (PD-1 [4]): 59.9%
binding activity, % of wild type (PD-1 [5]): 89.6%
B13: anti-PD-1 antibody 2 HC Thr98Cys (antibody, human IgG4 S228P, kappa, V domains shown)
VH: B5 VH with T98C
VL: B5 VL with C34A
modifications: arm on Cys98 as named in each row

binding activity, % of wild type (PD-1 [3]): 29.8%
binding activity, % of wild type (PD-1 [4]): 63.6%
binding activity, % of wild type (PD-1 [5]): 83.4%
B14: anti-PD-1 antibody 2 HC Gly42Cys (antibody, human IgG4 S228P, kappa, V domains shown)
VH: B5 VH with G42C
VL: B5 VL with C34A
modifications: arm on Cys42 as named in each row

binding activity, % of wild type (PD-1 [3]): 24.6%
binding activity, % of wild type (PD-1 [4]): 87.4%
binding activity, % of wild type (PD-1 [5]): 97.8%
B15: anti-PD-1 antibody 2 HC Gly9Cys (antibody, human IgG4 S228P, kappa, V domains shown)
VH: B5 VH with G9C
VL: B5 VL with C34A
modifications: arm on Cys9 as named in each row

binding activity, % of wild type (PD-1 [3]): 11.7%
binding activity, % of wild type (PD-1 [4]): 31.8%
binding activity, % of wild type (PD-1 [5]): 95.4%
B16: anti-PD-1 antibody 2 HC Gly26Cys (antibody, human IgG4 S228P, kappa, V domains shown)
VH: B5 VH with G26C
VL: B5 VL with C34A
modifications: arm on Cys26 as named in each row

binding activity (OD after mutation/OD wild type) (PD-1 [2]): 90 to 110%
B17: anti-PD-1 antibody 2 light chain S92C (antibody, human IgG4 S228P, kappa, V domains shown)
VH: B5 VH
VL: B5 VL with C34A, S92C

binding activity (OD after mutation/OD wild type) (PD-1 [2]): 90 to 110%
B18: anti-PD-1 antibody 2 light chain T97C (antibody, human IgG4 S228P, kappa, V domains shown)
VH: B5 VH
VL: B5 VL with C34A, T97C

binding activity (OD after mutation/OD wild type) (PD-1 [2]): 90 to 110%
B19: anti-PD-1 antibody 2 light chain T56C (antibody, human IgG4 S228P, kappa, V domains shown)
VH: B5 VH
VL: B5 VL with C34A, T56C

binding activity (OD after mutation/OD wild type) (PD-1 [2]): 90 to 110%
B20: anti-PD-1 antibody 2 light chain S31C (antibody, human IgG4 S228P, kappa, V domains shown)
VH: B5 VH
VL: B5 VL with S31C, C34A

binding activity, % of wild type (PD-1 [3]): 42.4%
binding activity, % of wild type (PD-1 [4]): 75.3%
binding activity, % of wild type (PD-1 [5]): 85%
B21: anti-PD-1 antibody 2 HC Ser17Cys (antibody, human IgG4 S228P, kappa, V domains shown)
VH: B5 VH with S17C
VL: B5 VL with C34A
modifications: arm on Cys17 as named in each row

binding activity, % of wild type (PD-1 [3]): 14.6%
binding activity, % of wild type (PD-1 [4]): 38.7%
binding activity, % of wild type (PD-1 [5]): 96.3%
B22: anti-PD-1 antibody 2 HC Ser75Cys (antibody, human IgG4 S228P, kappa, V domains shown)
VH: B5 VH with S75C
VL: B5 VL with C34A
modifications: arm on Cys75 as named in each row

binding activity, % of wild type (PD-1 [3]): 34.2%
binding activity, % of wild type (PD-1 [4]): 78.3%
binding activity, % of wild type (PD-1 [5]): 93.2%
B23: anti-PD-1 antibody 2 HC Gly8Cys (antibody, human IgG4 S228P, kappa, V domains shown)
VH: B5 VH with G8C
VL: B5 VL with C34A
modifications: arm on Cys8 as named in each row

binding activity (OD after mutation/OD wild type) (PD-1 [2]): 90 to 110%
B24: anti-PD-1 antibody 2 light chain S91C (antibody, human IgG4 S228P, kappa, V domains shown)
VH: B5 VH
VL: B5 VL with C34A, S91C

binding activity, % of wild type (PD-1 [3]): 15.3%
binding activity, % of wild type (PD-1 [4]): 31.8%
binding activity, % of wild type (PD-1 [5]): 89.7%
B25: anti-PD-1 antibody 2 HC Ser30Cys (antibody, human IgG4 S228P, kappa, V domains shown)
VH: B5 VH with S30C
VL: B5 VL with C34A
modifications: arm on Cys30 as named in each row

binding activity, % of wild type (PD-1 [3]): 22.9%
binding activity, % of wild type (PD-1 [4]): 56.9%
binding activity, % of wild type (PD-1 [5]): 81.4%
B26: anti-PD-1 antibody 2 HC Ser71Cys (antibody, human IgG4 S228P, kappa, V domains shown)
VH: B5 VH with S71C
VL: B5 VL with C34A
modifications: arm on Cys71 as named in each row

binding activity (OD after mutation/OD wild type) (PD-1 [2]): 90 to 110%
B27: anti-PD-1 antibody 2 light chain S30C (antibody, human IgG4 S228P, kappa, V domains shown)
VH: B5 VH
VL: B5 VL with S30C, C34A

binding activity, % of wild type (PD-1 [3]): 30.8%
binding activity, % of wild type (PD-1 [4]): 78.3%
binding activity, % of wild type (PD-1 [5]): 99.3%
B28: anti-PD-1 antibody 2 HC Gly44Cys (antibody, human IgG4 S228P, kappa, V domains shown)
VH: B5 VH with G44C
VL: B5 VL with C34A
modifications: arm on Cys44 as named in each row

binding activity (OD after mutation/OD wild type) (PD-1 [2]): 90 to 110%
B29: anti-PD-1 antibody 2 light chain S26C (antibody, human IgG4 S228P, kappa, V domains shown)
VH: B5 VH
VL: B5 VL with S26C, C34A

binding activity, % of wild type (PD-1 [3]): 21.7%
binding activity, % of wild type (PD-1 [4]): 48.9%
binding activity, % of wild type (PD-1 [5]): 86%
B30: anti-PD-1 antibody 2 HC Thr91Cys (antibody, human IgG4 S228P, kappa, V domains shown)
VH: B5 VH with T91C
VL: B5 VL with C34A
modifications: arm on Cys91 as named in each row

binding activity, % of wild type (PD-1 [3]): 15%
binding activity, % of wild type (PD-1 [4]): 64.6%
binding activity, % of wild type (PD-1 [5]): 85%
B31: anti-PD-1 antibody 2 HC Ala92Cys (antibody, human IgG4 S228P, kappa, V domains shown)
VH: B5 VH with A92C
VL: B5 VL with C34A
modifications: arm on Cys92 as named in each row

binding activity, % of wild type (PD-1 [3]): 27%
binding activity, % of wild type (PD-1 [4]): 46.8%
binding activity, % of wild type (PD-1 [5]): 84.3%
B32: anti-PD-1 antibody 2 HC Ala88Cys (antibody, human IgG4 S228P, kappa, V domains shown)
VH: B5 VH with A88C
VL: B5 VL with C34A
modifications: arm on Cys88 as named in each row

binding activity, % of wild type (PD-1 [3]): 32.3%
binding activity, % of wild type (PD-1 [4]): 69.4%
binding activity, % of wild type (PD-1 [5]): 98.8%
B33: anti-PD-1 antibody 2 HC Ser85Cys (antibody, human IgG4 S228P, kappa, V domains shown)
VH: B5 VH with S85C
VL: B5 VL with C34A
modifications: arm on Cys85 as named in each row

binding activity (OD after mutation/OD wild type) (PD-1 [2]): 90 to 110%
B34: anti-PD-1 antibody 2 light chain G57C (antibody, human IgG4 S228P, kappa, V domains shown)
VH: B5 VH
VL: B5 VL with C34A, G57C

binding activity, % of wild type (PD-1 [3]): 27%
binding activity, % of wild type (PD-1 [4]): 48.7%
binding activity, % of wild type (PD-1 [5]): 99.8%
B35: anti-PD-1 antibody 2 HC Ser25Cys (antibody, human IgG4 S228P, kappa, V domains shown)
VH: B5 VH with S25C
VL: B5 VL with C34A
modifications: arm on Cys25 as named in each row
